Target: Pre-formed aBeta fibrils (UniProt P05067 672-713)
Assay: ELISA

- EC50: 0.702 nM
B1: gantenerumab (antibody, V domains shown)
VH: QVELVESGGGLVQPGGSLRLSCAASGFTFSSYAMSWVRQAPGKGLEWVSAINASGTRTYYADSVKGRFTISRDNSKNTLYLQMNSLRAEDTAVYYCARGKGNTHKPYGYVRYFDVWGQGTLVTVSS
VL: DIVLTQSPATLSLSPGERATLSCRASQSVSSSYLAWYQQKPGQAPRLLIYGASSRATGVPARFSGSGSGTDFTLTISSLEPEDFATYYCLQIYNMPITFGQGTKVEIK

Source: patent publication US20260158147A1 (published 2026)
